According to article PMC9029707, “Crystal Structure of an SSB Protein from Salmonella enterica and Its Inhibition by Flavanonol Taxifolin” (International Journal of Molecular Sciences, 2022):

Experiments:
[1] = biological target: T1, SeSSB (single-stranded DNA-binding protein, STM_4256) (Salmonella enterica, UniProt P0A2F6); assay: EMSA, inhibition of binding of purified SeSSB ([…]) to biotinylated ssDNA dT35
T1 construct: gene ssb; His-tagged SeSSB, 176 residues (pET21b-SeSSB)

[2] = biological target: T2, SeSSB (single-stranded DNA-binding protein) (Salmonella enterica serovar Typhimurium …, UniProt P0A2F6 1-176); assay: EMSA; single complex; SeSSB 0-4000 nM; dA EMSA: 20 mM Tris-HCl pH 8.0, 100 mM NaCl, 25 C, 30 min, 1.7 nM DNA; dT35 EMSA: 40 mM Tris-HCl pH 7.5, 50 mM NaCl, 37 C, 60 min, 30 fmol/uL DNA; 8% native PAGE in TBE; conditions: protein: recombinant; tags: His-tag (pET21b); chain copies: 4; label: 5'-32P (T4 PNK); single strand
[3] = biological target: T2, SeSSB (single-stranded DNA-binding …); assay: EMSA; two complexes; SeSSB 0-4000 nM; dA EMSA: 20 mM Tris-HCl pH 8.0, 100 mM NaCl, 25 C, 30 min, 1.7 nM DNA; dT35 EMSA: 40 mM Tris-HCl pH 7.5, 50 mM NaCl, 37 C, 60 min, 30 fmol/uL DNA; 8% native PAGE in TBE; conditions: protein: recombinant; tags: His-tag (pET21b); chain copies: 4; label: 5'-32P (T4 PNK); single strand
[4] = biological target: T2, SeSSB (single-stranded DNA-binding …); assay: EMSA; 37 C, 40 mM Tris-HCl pH 7.5, 50 mM NaCl; protein at 50% bound; dA EMSA: 20 mM Tris-HCl pH 8.0, 100 mM NaCl, 25 C, 30 min, 1.7 nM DNA; dT35 EMSA: 40 mM Tris-HCl pH 7.5, 50 mM NaCl, 37 C, 60 min, 30 fmol/uL DNA; 8% native PAGE in TBE; conditions: protein: recombinant; tags: His-tag (pET21b); chain copies: 4; label: biotin (5' per Methods 4.5; 3' per Results 2.5); single strand
[5] = biological target: the molecule itself; assay: SEC; purified SeSSB (5 mg/mL) on a Superdex 200 prep-grade column in 100 mM NaCl, 100 mM MES, pH 6.5; calibrated with standard proteins; native mass estimated 76641 Da; tetramer
[6] = biological target: T2, SeSSB (single-stranded DNA-binding …); assay: EMSA; two complexes at higher SeSSB (0-4000 nM); dA EMSA: 20 mM Tris-HCl pH 8.0, 100 mM NaCl, 25 C, 30 min, 1.7 nM DNA; dT35 EMSA: 40 mM Tris-HCl pH 7.5, 50 mM NaCl, 37 C, 60 min, 30 fmol/uL DNA; 8% native PAGE in TBE; conditions: protein: recombinant; tags: His-tag (pET21b); chain copies: 4; label: 5'-32P (T4 PNK); single strand

O=C1c2c(O)cc(O)cc2O[C@H](c2ccc(O)c(O)c2)[C@H]1O [taxifolin]
IC50 [1]: 98 ± 12 µM

AAAAAAAAAAAAAAAAAAAAAAAAAAAAAAAAAAA (ssDNA) [dA35]
binding result [2]: binds

B1: dA55 (ssDNA)
DNA: AAAAAAAAAAAAAAAAAAAAAAAAAAAAAAAAAAAAAAAAAAAAAAAAAAAAAAA
binding result [3]: binds

AAAAAAAAAAAAAAAAAAAAAAAAAAAAAAAAAAAAAAAAAAAAAAAAAA (ssDNA) [dA50]
binding result [3]: binds

TTTTTTTTTTTTTTTTTTTTTTTTTTTTTTTTTTT (ssDNA) [dT35]
Kd [4]: 0.23 ± 0.02 µM

AAAAAAAAAAAAAAAAAAAAAAAAAAAAAAAAAAAAAAAA (ssDNA) [dA40]
binding result [2]: binds

B2: Single-stranded DNA-binding protein (SSB) from Salmonella enterica serovar Typhimurium LT2 (natural protein, UniProt P0A2F6 1-176, looked up)
chain: MASRGVNKVILVGNLGQDPEVRYMPSGGAVANLTLATSESWRDKQTGEMKEQTEWHRVVMFGKLAEVAGEYLRKGSQVYIEGQLRTRKWTDQSGQERYTTEINVPQIGGVMQMLGGRQGGGAPAGGQQQGGWGQPQQPQQPQGGNQFSGGAQSRPQQSAPAPSNEPPMDFDDDIPF
notes: SSB (STM_4256) of Salmonella enterica serovar Typhimurium LT2; monomer of 176 amino acid residues, ~19 kDa; residues 1-115 ordered and 116-176 disordered in the crystal; No removal of the tag is described; also called SeSSB; S. enterica SSB
stoichiometry N [5]: 4

AAAAAAAAAAAAAAAAAAAAAAAAAAAAAAAAAAAAAAAAAAAAA (ssDNA) [dA45]
binding result [6]: binds
